Experimental data taken from the supplement of paper PMC10567573.

B1: BTBD10 (parent)
chain: DRKLHSRPRKLYKHSSTSSRIAKG

Variants of: B1
Assay: protein stability index of a GFP-peptide fusion (GPS, HEK-293T) (PSI 1-6); higher = more stable
Conditions: c terminus: a fixed tail appended
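Note: lentivirally expressed fusions sorted by FACS into six bins by GFP to DsRed ratio, PSI derived from sequencing read proportions per bin multiplied by bin number.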

Protein stability index, by site and new letter:
R20: L 3.94, W 2.97, V 3.96, A 3.9, P 3.6, K 3.92, I 3.66, N 4.21, Q 4.2, D 4.28, S 3.85, M 4.06, F 3.6, T 4.13, Y 3.94, C 3.39, G 3.62, E 4.04, H 4.24
S19: Y 2.62, A 3.55, H 3.5, C 3.62, Q 3.63, E 4.42, L 3.45, R 4.53, N 3.58, D 3.93, I 3.7, W 3.22, G 3.57, V 3.65, P 4.34, K 4.18, T 4.4, M 3.07, F 3.23
S18: F 3.04, N 4.36, D 4.13, G 3.99, Y 2.88, W 2.71, E 4.38, C 3.27, Q 3.95, H 3.6, L 4.3, T 3.65, P 3.93, R 3.63, K 3.4, M 3.63, A 4.42, I 3.54, V 4.07
A22: F 2.99, C 3.11, L 3.03, I 3.58, P 3.99, R 4.5, H 3.58, T 3.55, Q 4.15, Y 3.7, W 3.47, D 4.01, V 3.71, K 3.68, N 3.34, M 3.44, G 3.91, E 3.67, S 4.15
K23: G 4.08, N 4.61, C 3.17, V 3.31, E 4.08, M 2.89, Y 2.98, P 3.44, Q 4.1, D 3.78, A 3.72, W 3.04, F 3.56, H 3.41, I 2.92, S 3.41, L 3, T 3.58, R 3.27
I21: F 3.65, Y 4.48, K 4.28, L 3.96, M 3.77, H 4.04, A 3.5, D 4.6, P 4.16, R 3.95, C 3.88, S 4.59, W 3.33, E 4.33, V 3.74, Q 3.36, T 4.18, N 4.03, G 4.71
K13: D 4.23, M 2.84, A 4.04, S 3.52, V 3.69, T 4, R 3.74, E 4.47, W 3.55, Q 4.12, C 3.68, G 4.42, F 2.77, P 3.86, Y 3.6, N 3.61, H 3.65, L 2.84, I 2.68
S16: I 3.65, P 3.87, Q 4.18, L 3.92, M 4, C 3.43, R 3.78, N 4.28, W 3.25, D 3.83, V 4.03, F 2.17, E 3.99, A 4.32, Y 3.45, T 4.35, G 3.52, K 2.94, H 3.55
L11: P 3.79, G 4.16, F 4.91, H 3.93, Y 3.7, C 2.99, V 3.82, T 4.82, E 4.49, K 4.19, S 4.57, D 3.71, N 3.46, Q 4.13, M 4.67, R 4.42, A 4.08, I 3.61, W 3.67
G24: D 3.65, T 4, F 3.19, L 3.28, Q 3.92, A 3.61, E 4.5, V 3.74, C 3.3, R 4, S 3.65, K 4.14, M 3.38, Y 3.33, I 3.21, H 3.35, P 4.05, W 2.65, N 4.3
T17: I 3.56, R 4.45, K 4.33, G 2.9, H 3.63, F 3.24, S 3.86, E 4.41, N 3.18, W 2.2, Q 3.98, A 3.7, Y 3.08, L 4.48, C 3.35, V 3.81, M 3.28, D 4.54, P 3.88
H14: W 3.61, S 3.66, K 3.64, Q 3.79, P 3.54, N 4.43, C 4.41, L 3.4, E 4.13, D 3.58, I 3.88, A 4.27, M 3.67, T 4.19, Y 2.79, F 4.44, R 4.05
Y12: T 4.05, S 4.65, D 4.27, I 3.3, E 4.28, K 4.72, C 3.84, R 4.21, Q 4.01, M 3.11, V 4.08, W 4.1, F 4.01, P 4.15, G 4.65, A 4.54, H 3.78, L 3.88, N 4.12
S15: Q 3.85, W 3.1, I 3.43, L 3.71, C 3.89, P 4.05, Y 3.67, R 4.12, H 3.25, E 4.06, K 3.59, D 4.22, F 3, T 4.17, V 3.88, G 4.49, N 3.66, M 3.1, A 4.23
K10: S 4.09, T 3.58, W 3.33, C 3.55, D 4.21, A 3.67, L 3.77, V 3.72, N 4.07, M 3.24, F 3.18, I 2.62, Y 3.94, Q 4.08, G 3.52, H 4.07, P 3.25, R 3.97, E 2.8
